Where two headings read alike, the source gives them in different places.
How the values were obtained:
[1] = target: human PD-L1 antigen (ACROBiosystems) (human) (UniProt Q9NZQ7); test: BLI (Gator), antibody captured on PA probe, human PD-L1 in solution
[2] = target: cynomolgus PD-L1 antigen (ACROBiosystems) (cynomolgus) (UniProt G7PSE7); test: ELISA, coated antigen
[3] = target: human PD-L1 antigen (ACROBiosystems) (human) (UniProt Q9NZQ7); test: ELISA, coated antigen
[4] = target: human PD-L1 antigen (ACROBiosystems) (human) (UniProt Q9NZQ7); test: ELISA, coated antigen; remark: listed apart in the source
[5] = target: CD40 on HEK-Blue CD40L cells (InvivoGen) (UniProt P25942); test: cell-based or functional assay
[6] = target: human CD40 antigen (ACROBiosystems) (human) (UniProt P25942); test: ELISA, coated antigen
[7] = target: cynomolgus CD40 antigen (ACROBiosystems) (cynomolgus) (UniProt G7PG38); test: ELISA, coated antigen
[8] = target: human CD40 antigen (ACROBiosystems) (human) (UniProt P25942); test: ELISA, coated antigen; remark: listed apart in the source
[9] = target: cynomolgus CD40 antigen (ACROBiosystems) (cynomolgus) (UniProt G7PG38); test: ELISA, coated antigen; remark: listed apart in the source

Chain of human PD-L1 antigen (ACROBiosystems) (human) (Q9NZQ7 19-238 limits assumed): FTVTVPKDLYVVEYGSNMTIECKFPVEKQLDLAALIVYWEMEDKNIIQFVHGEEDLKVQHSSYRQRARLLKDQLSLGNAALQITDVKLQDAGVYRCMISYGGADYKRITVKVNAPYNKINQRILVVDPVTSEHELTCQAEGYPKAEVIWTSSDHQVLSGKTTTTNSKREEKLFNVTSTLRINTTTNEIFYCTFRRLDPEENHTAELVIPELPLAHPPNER
Chain of control CD40 monoclonal antibody CP-870893 (IMGT database ID 10523) (VH): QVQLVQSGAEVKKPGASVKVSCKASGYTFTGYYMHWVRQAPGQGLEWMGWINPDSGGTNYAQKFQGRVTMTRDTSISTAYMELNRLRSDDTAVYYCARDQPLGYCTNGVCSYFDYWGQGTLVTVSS
Chain of control CD40 monoclonal antibody CP-870893 (IMGT database ID 10523) (VL): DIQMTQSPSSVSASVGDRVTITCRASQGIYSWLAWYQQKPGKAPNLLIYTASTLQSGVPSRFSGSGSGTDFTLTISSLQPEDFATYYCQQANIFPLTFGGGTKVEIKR
Chain of CD40 on HEK-Blue CD40L cells (InvivoGen) (P25942 21-277 limits assumed): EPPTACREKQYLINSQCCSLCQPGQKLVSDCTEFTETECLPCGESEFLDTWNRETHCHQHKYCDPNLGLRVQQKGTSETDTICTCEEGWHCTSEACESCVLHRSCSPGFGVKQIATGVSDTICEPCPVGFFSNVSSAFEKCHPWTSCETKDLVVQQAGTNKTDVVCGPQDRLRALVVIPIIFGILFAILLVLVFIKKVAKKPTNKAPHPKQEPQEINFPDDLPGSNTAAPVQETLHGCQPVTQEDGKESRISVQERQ
Chain of cynomolgus CD40 antigen (ACROBiosystems) (cynomolgus) (G7PG38 entry or part of it): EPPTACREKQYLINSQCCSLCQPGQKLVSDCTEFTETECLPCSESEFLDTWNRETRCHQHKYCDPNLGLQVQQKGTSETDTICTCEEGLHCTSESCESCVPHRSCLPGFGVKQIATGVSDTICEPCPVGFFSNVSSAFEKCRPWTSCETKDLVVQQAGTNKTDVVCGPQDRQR
Chain of human CD40 antigen (ACROBiosystems) (human) (P25942 21-193 limits assumed): as the sequence (G7PG38 entry or part of it) above, with S43G, R56H, Q70R, L89W, S95A, P101L, L106S, R142H, Q172L counted along it
Chain of cynomolgus PD-L1 antigen (ACROBiosystems) (cynomolgus) (G7PSE7 entry or part of it): as the sequence (Q9NZQ7 19-238 limits assumed) above, with A33T, A34S, S62N, R68Q, Q82R, F173L, T185A, T192I, H215L counted along it

Substance | koff [1] | EC50 [2] | EC50 [3] | EC50 [4] | CD40 agonistic activity (A)/(B) Ratio, EC50 without over with CHO/PD-L1 [5] | CD40 agonistic activity EC50 (nM) with CHO/PD-L1 (B), SEAP reporter [5] | CD40 agonistic activity EC50 (nM) without CHO/PD-L1 (A), SEAP reporter [5] | EC50 [6] | EC50 [7] | EC50 [8] | EC50 [9]
control PD-L1 monoclonal antibody Durvalumab (IMGT database ID 10010) | 0.00265 s⁻¹ | 0.017 nM | 0.014 nM | 0.012 nM |  |  |  |  |  |  | 
control CD40 monoclonal antibody CP-870893 (IMGT database ID 10523) |  |  |  |  | 0.9 | 0.123 nM | 0.109 nM | 0.018 nM | 0.018 nM | 0.016 nM | 0.016 nM
